Results on five molecules are retold here after patent US20250388694A1 (BOOSTIMMUNE, published 2025).

Assay [1] has as its target T1, mouse TCTP in which the 13th leucine was replaced with methionine (mouse, UniProt P63028 1-172).
T1 construct: One of several mouse-to-human replacement mutants; also called mouse TCTP L13M
T1 sequence (looked up): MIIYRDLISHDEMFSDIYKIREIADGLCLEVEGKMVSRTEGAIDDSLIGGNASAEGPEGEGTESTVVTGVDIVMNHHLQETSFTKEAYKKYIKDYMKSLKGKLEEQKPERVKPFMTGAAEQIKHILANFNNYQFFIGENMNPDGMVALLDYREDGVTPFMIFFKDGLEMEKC
Nature of the assay: ELISA on mouse TCTP mutants. (An ELISA detects its analyte on a solid surface through an enzyme-linked reagent.)

Assay [2] has as its target T2, Human TCTP (translationally controlled tumor protein) (human, UniProt P13693 1-172).
T2 construct: also called HRF; Tpt1
T2 sequence: T1 sequence (looked up) with A42N, V67I, L99I, K107R, N130K, F159Y
Nature of the assay: SPR, Biacore 8K, human TCTP immobilised on CM5 chip, antibody as analyte, 1:1 model. On the procedure:
The antigen binding capacity of antibodies selected in Example 1 was analyzed using a SPR technique. The device used was Biacore 8K (Ge Healthcare). Human TCTP was immobilized on a chip, and antibodies were shed at 6 or 7 different concentrations. A CM5 chip (GE Healthcare, Cat. 29-1275-56), a regeneration buffer (10 mM glycine-HCl (GE Healthcare)), and a driving buffer HBS-EP+, and the like were used. For kinetic analysis, the binding time was set to 100 or 120 seconds, the flow rate was set to 30 or 50 μl/min in the binding phase, and in the dissociation phase, the dissociation time was set to 300 or 360 seconds, and the flow rate was set to 30 or 50 μl/min. The fitting was carried out using a 1:1 combined model, and BIACore Evaluation Software (GE healthcare) was used as the evaluation software.

The target in a further assay is T3, mouse TCTP (mouse, UniProt P63028 1-172).
T3 sequence (looked up): T1 sequence (looked up) with M13L
Put plainly: ELISA on mouse TCTP, binder titrated as scFv (axis [scFv] Log(nM)), OD450 [panel Mouse TCTP].

For assay [3], the target named is T2, Human TCTP (translationally controlled …). Put plainly: competition ELISA: human TCTP coated at 1 µg/ml, 150 nM TLR2 plus titrated antibody, bound TLR2 detected; % inhibition of TLR2-TCTP binding.
Assay [4] shares this target. Put plainly: ELISA, human TCTP coated at 1 µg/ml, antibody titrated, OD 450 nm. On the procedure: ELISA was carried out to quantitatively analyze the binding capacity of selected antibodies to antigens. To this end, human TCTP was attached to an ELISA plate at a concentration of 1 μg/ml and then treated with antibodies of various concentrations to check the relative binding capacity. As a result of the measurement, all of antibodies Ab1, Ab2, Ab3, Ab4, Ab5, Ab6, Ab7, Ab8, Ab9, Ab12, Ab13, Ab14, Ab15, Ab17, Ab18, Ab19, Ab20, Ab21, and Ab22 were confirmed to bind well to human TCTP (FIGS. 1a and 1b).

Assay [5] shares this target. Nature of the assay: ELISA, selection of hybridoma antibodies.

Where a chain is given by its changes, count along the chain named.

B1: Ab10 (antibody, V domains shown)
VH: not shown
VL: QSVVTQPPSVSAAPGQKVTISCSGSSSNIGNKKVSWYQQLPVTAPKLLIYDDNKRPSGIPDRFSGSKSGTSATLGITGLQTGDEADYYCATWDSSLRAVVFGGGTKLTVL
notes: also called antibody Ab10; parent antibody
The term Kd denotes a measure of binding affinity in units of concentration. Low values mean higher affinity, high ones lower affinity. As to B1, the binding result (in assay [1]; in the assay with mouse TCTP) was “binds” throughout. This molecule also had an equilibrium dissociation constant (Kd) in assay [2] of 0.224 nM.

B2: Ab12 (antibody, V domains shown)
VH: QVQLVQSGAEVKKPGASVKVSCKASGYTFTSHAVHWVRQAPGQRLEWMGWINAGKGNTKYSQKFQGRVTITRDTSATTAYMELSSLRSEDTAVYYCARGRAVAFDPWGQGTLVTVSS
VL: RSALTQPPSASGSPGQSVTVSCTGTNSDIGGYNYVSWYKQHPGNAPKLMIYEVNKRPSGVPDRFSGSKSGNTASLTVSGLQTEDEADYYCASYAGDNNLVFGGGTKLTVL
notes: also called antibody Ab12
In assay [2], B2 showed a Kd of 0.168 nM. For the same molecule, the “IC50 (read off the curve)” value in assay [3] is around 10 nM.

B3: Ab8 (antibody, V domains shown)
VH: QVQLVQSGAEVKKPGASVKVSCKASGYTFFSYAMHWVRQAPGQRLEWMGWINAGNGNTKYSQKFQDRVTITRDTSATTAYMELSSLRSEDTAVYYCASWVFDYWGQGTPVTVSS
VL: DIVMTQTPLSSLVTLGQPASISCRSSQSLVHRDGNTYLSWLQQRPGQPPRLLIYKISNRFFGVPDRFSGSGAGTDFTLKISRVEAEDVGVYYCMQATQFPHTFGQGTKLEIK
notes: From Beacon screening; also called antibody Ab8
Broadly, the EC50 (read off the curve) is the midpoint of the concentration-response curve. Low values mean higher potency in that assay, high ones lower potency in that assay. With B3, the 50% effective concentration (EC50 (read off the curve)) in assay [4] is around 0.02 µg/mL. For the same molecule, the affinity in assay [2], expressed as Kd, was 14 nM. Further, the “IC50 (read off the curve)” value in assay [3] is around 6 nM.

B4: Ab20 (antibody, V domains shown)
VH: QVQLQQSGPGLVKPSQTLSLTCAISGDSVSSSSAAWNWIRQSPSRGLEWLGRTFYRSKWYNDYAESVKSRITINADTSKNQFSLQLNSVTPEDTAVYYCARRLTIVRGVMRGGMDVWGQGTTVTVSS
VL: DIVMTQSPDSLTGSLDERATINCKSSQNLLYSANNKDYIAWYQQKPGQSPKLLIYWASIRYSGVPDRFSGSGSGTDFTLTISSLQAEDVAVYYCQQYFSTPWTFGQGTKVEIK
notes: also called antibody Ab20
With B4, the equilibrium dissociation constant (Kd) in assay [2] worked out at 0.704 nM. Also, in assay [3], the “IC50 (read off the curve)” value was around 10 nM.

B5: Ab16 (antibody, V domains shown)
VH: QVQLQQSGPGLVKPSQTLSLTCAISGDSVSSNSAAWNWIRQSPSRGLEWLGRTYYKSKWYNDYAVSVKSRMTINPDTSKNQFSLQLNSVTPEDTAVYYCARGGSAVFDYWGQGTLVTVSS
VL: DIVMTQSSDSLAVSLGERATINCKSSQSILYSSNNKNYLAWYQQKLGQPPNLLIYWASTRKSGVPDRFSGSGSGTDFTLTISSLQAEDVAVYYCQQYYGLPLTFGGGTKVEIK
notes: also called antibody Ab16
Take B5: the binding result in assay [5] is “binds”.
